Results on one molecule are retold here after US20230303666A1 (published 2023).

This assay has as its target recombinant RBD (ThermoFisher, RP-87678) (SARS-CoV-2, UniProt P0DTC2 319-541).

B1: SR6v15 with GST tag (VHH, not shown: a dimerising Fc or GST)
VHH: EVQLVESGGGLVQAGDSLRLSCAASGDSYILWRMGWFRQAPGKEREFVAAISLDGQFTNYADSVRGRFSISADSAKYTVYLQMNSLKPEDTAVYYCAALPFLDYWGQGTQVTVSS
With B1, the equilibrium dissociation constant (Kd) (as a rule, the concentration at which binding is half-saturated) is 2.18 nM.
